Measured values taken from article PMC5861037.

Target: DosR (Mycobacterium tuberculosis H37Rv) (UniProt P9WMF9)
Assay: EMSA
Settings: 25 mM Tris-HCl pH 8.0, 20 mM KCl, 0.5 mM EDTA, 6 mM MgCl2, 1 mM DTT, 1 ug/mL poly I:C; room temperature, 10 min; 6.5% native Tris-glycine PAGE, silver staining

TTGATGCCTCCTAATCGATGGAAACGGATGCCTTTGATCCGACCAGCCCATCGTGGCCAGGGCTAGGGACAGAAGTCCCCGAAGCGCGGGCCATTTGTCCGCGCCCGTCGGTGATCCACTTGGGGACCATTGACCCTGTTGTCTGCCA (double strand) [acr promoter fragment]
binding: binds
